{
  "source": "paper PMC3654831",
  "about": "(Cell reports, 2012)",
  "binders": {"B1": {"name": "Sgt2 N-terminal homodimerization domain (Sgt2-N), wild type (domain or fragment, S. cerevisiae)", "chain": "SASKEEIAALIVNYFSSIVEKKEISEDGADSLNVAMDCISEAFGFEREAVSGILGKSEFKGQHLADILNSA"}},
  "key": {"[1]": {"molecular_target": "T1, Get5 ubiquitin-like domain (Get5-UBL), wild type (S. cerevisiae, UniProt Q12285 74-151)", "T1 sequence": "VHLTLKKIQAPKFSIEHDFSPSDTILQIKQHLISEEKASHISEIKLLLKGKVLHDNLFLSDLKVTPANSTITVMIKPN", "assay": "NMR exchange spectroscopy"}, "solution NMR structure": {"molecular_target": "the molecule itself", "assay": "solution NMR structure"}, "[2]": {"molecular_target": "T1, Get5 ubiquitin-like domain (Get5-UBL), …", "assay": "NMR exchange spectroscopy", "remark": "listed apart in the source"}, "[3]": {"molecular_target": "T2, polyhistidine-tagged Get5-UBL, wild type (S. cerevisiae, UniProt Q12285 74-151)", "T2 sequence": "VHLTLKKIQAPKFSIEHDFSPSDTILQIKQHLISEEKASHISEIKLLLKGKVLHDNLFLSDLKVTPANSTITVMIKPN", "assay": "SPR"}, "[4]": {"molecular_target": "T3, polyhistidine-tagged Get5-UBL-C (S. cerevisiae)", "T3 sequence (Q12285 whole entry, looked up)": "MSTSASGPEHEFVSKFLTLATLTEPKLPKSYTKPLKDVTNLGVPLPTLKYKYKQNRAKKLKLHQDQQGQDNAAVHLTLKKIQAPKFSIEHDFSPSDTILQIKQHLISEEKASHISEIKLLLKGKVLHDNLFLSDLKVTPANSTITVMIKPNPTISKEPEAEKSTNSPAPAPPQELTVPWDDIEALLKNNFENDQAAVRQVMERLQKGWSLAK", "assay": "SPR"}, "[5]": {"molecular_target": "B1", "assay": "ITC"}, "[6]": {"molecular_target": "T1, Get5 ubiquitin-like domain (Get5-UBL), …", "assay": "ITC"}},
  "note": "Several values for one entry are separate records, joined by “and”; a condition that tells them apart may be missing. Equal entries are not always repeated.",
  "data": [
    {"binder": "B1", "values": [
      {"measurement": "kon", "setting": "[1]", "result": "~2e+08", "unit": "M⁻¹ s⁻¹"},
      {"measurement": "stoichiometry N", "setting": "solution NMR structure", "result": 2},
      {"measurement": "koff", "setting": "[2]", "result": "7.5 s⁻¹ and 5.7 s⁻¹"},
      {"measurement": "Kd", "setting": "[3]", "result": 3.78, "unit": "µM"},
      {"measurement": "Kd", "setting": "[4]", "result": 0.749, "unit": "µM"},
      {"measurement": "kon", "setting": "[4]", "result": "1.06e+07", "unit": "M⁻¹ s⁻¹"}
    ]},
    {"binder": "Sgt2-N D28A (domain or fragment, S. cerevisiae) SASKEEIAALIVNYFSSIVEKKEISEAGADSLNVAMDCISEAFGFEREAVSGILGKSEFKGQHLADILNSA", "values": [
      {"measurement": "binding result", "setting": "[3]", "result": "binds"}
    ]},
    {"binder": "Get5-UBL L120A (domain or fragment, S. cerevisiae) VHLTLKKIQAPKFSIEHDFSPSDTILQIKQHLISEEKASHISEIKLALKGKVLHDNLFLSDLKVTPANSTITVMIKPN", "values": [
      {"measurement": "fold lower affinity than wild type", "setting": "[5]", "result": 1000, "unit": "fold"}
    ]},
    {"binder": "Sgt2-N C39V (domain or fragment, S. cerevisiae) SASKEEIAALIVNYFSSIVEKKEISEDGADSLNVAMDVISEAFGFEREAVSGILGKSEFKGQHLADILNSA", "values": [
      {"measurement": "fold lower affinity than wild type", "setting": "[6]", "result": 100, "unit": "fold"}
    ]},
    {"binder": "Sgt2-N C39S (domain or fragment, S. cerevisiae) SASKEEIAALIVNYFSSIVEKKEISEDGADSLNVAMDSISEAFGFEREAVSGILGKSEFKGQHLADILNSA", "values": [
      {"measurement": "fold lower affinity than wild type", "setting": "[6]", "result": "~700", "unit": "fold"}
    ]},
    {"binder": "Sgt2-N V35A (domain or fragment, S. cerevisiae) SASKEEIAALIVNYFSSIVEKKEISEDGADSLNAAMDCISEAFGFEREAVSGILGKSEFKGQHLADILNSA", "values": [
      {"measurement": "fold lower affinity than wild type", "setting": "[6]", "result": "> 100", "unit": "fold"}
    ]},
    {"binder": "Sgt2-N D31A (domain or fragment, S. cerevisiae) SASKEEIAALIVNYFSSIVEKKEISEDGAASLNVAMDCISEAFGFEREAVSGILGKSEFKGQHLADILNSA", "values": [
      {"measurement": "binding result", "setting": "[3]", "result": "binds"}
    ]}
  ]
}
